{"source": "paper PMC9098913", "about": "“In vitro reconstitution of Escherichia coli divisome activation” (Nature Communications, 2022)", "molecules": {"B1": {"name": "His6-SUMO (protein, UniProt Q12306 2-98, looked up)", "Ubiquitin-like protein SMT3": "SDSEVNQEAKPEVKPEVKPETHINLKVSDGSSEIFFKIKKTTPLRRLMEAFAKRQGKEMDSLRFLYDGIRIQADQTPEDLDMEDNDIIEAHREQIGG", "modifications": "His6 tag"}}, "key": {"[1]": {"assay": "Diffusion coefficient of His-tagged FtsAs and His-SUMO on Tris-NTA membranes (FRAP)", "settings": "without FtsZ", "protocol": "(§1) To study colocalization of His-tagged variants of FtsA, 0.5–1 µM of Cy5 labelled His-tagged FtsAs were added to the chamber, incubated for 20 min and washed 6x with reaction buffer. […] To control the density of membrane-bound FtsA, SUVs without and with Tris-NTA lipids were mixed to obtain the respective Tris-NTA concentrations. To perform FRET/FRAP experiments, equimolar concentrations of Cy3 and Cy5 labelled His-tagged FtsAs (total 0.5–1 µM) or His-SUMO-Cys were added to a chamber and treated as above. […] FRAP experiments were performed as described before.\n(§2) Bleaching the acceptor dye leads to an increase in the donor intensity, which can be used to quantify the Foerster Resonance energy transfer (FRET)[48]. FRET efficiency was quantified with E%=Ipost/Ipost+Ipre⋅100 , where Ipost is the intensity of the […] and Ipre is the […]. […] To extract the contribution of both processes, we adjusted a routine recently published by Gerganova et al.[33]. In short, the code provides the contribution of both modes of recovery by analysing the shape of the fluorescence recovery profile. […] Contribution of diffusion leads to a change of the slope of the outer borders of the bleached region (S4h right). Thus, by measuring the change of the slope of the border recovery, diffusion and simple on/off binding can be distinguished. We developed “FRAPdiff”, a graphical user interface, which uses the original fit routine by David Rutkowski. It can be used directly on.tiff movies with annotated bleach regions as ImageJ ROIs. In addition, we added optional bleach correction, user selectable projection axis (x or y), and optional mirroring of the recovery profiles, if bleaching was not symmetric. The original fit routine for estimating the recovery and diffusion dynamics can be found at https://github.com/davidmrutkowski/1DReflectingDiffusion. FRAPdiff is available at 10.5281/zenodo.6400639[49] under the GPLv3 open-source license."}, "FtsA self-interaction": {"tested_on": "FtsA self-interaction", "assay": "FRET self-interaction of His-tagged FtsAs (and His-SUMO control) on Tris-NTA membranes", "format": "binding, E. coli", "settings": "without FtsZ", "protocol": "as §1, §2"}}}
{"molecule": "B1", "values": [{"measurement": "Diffusion Coefficient", "setting": "[1]; 0.1% Tris NTA, replicate Exp1", "result": 0.47, "unit": "µm2/s"}, {"measurement": "Diffusion Coefficient", "setting": "[1]; 0.1% Tris NTA, replicate Exp2", "result": 0.69, "unit": "µm2/s"}, {"measurement": "Diffusion Coefficient", "setting": "[1]; 0.4% Tris NTA, replicate Exp1", "result": 0.55, "unit": "µm2/s"}, {"measurement": "Diffusion Coefficient", "setting": "[1]; 0.4% Tris NTA, replicate Exp2", "result": 0.53, "unit": "µm2/s"}, {"measurement": "Diffusion Coefficient", "setting": "[1]; 0.4% Tris NTA, replicate Exp3", "result": 0.48, "unit": "µm2/s"}, {"measurement": "Diffusion Coefficient", "setting": "[1]; 0.6% Tris NTA, replicate Exp1", "result": 0.58, "unit": "µm2/s"}, {"measurement": "Diffusion Coefficient", "setting": "[1]; 0.6% Tris NTA, replicate Exp2", "result": 0.54, "unit": "µm2/s"}, {"measurement": "Diffusion Coefficient", "setting": "[1]; 0.6% Tris NTA, replicate Exp3", "result": 0.58, "unit": "µm2/s"}, {"measurement": "Diffusion Coefficient", "setting": "[1]; 0.6% Tris NTA, replicate Exp4", "result": 0.63, "unit": "µm2/s"}, {"measurement": "Diffusion Coefficient", "setting": "[1]; 0.8% Tris NTA, mean", "result": 0.52, "unit": "µm2/s"}, {"measurement": "Diffusion Coefficient", "setting": "[1]; 0.8% Tris NTA, replicate Exp1", "result": 0.56, "unit": "µm2/s"}, {"measurement": "Diffusion Coefficient", "setting": "[1]; 0.8% Tris NTA, replicate Exp2", "result": 0.53, "unit": "µm2/s"}, {"measurement": "Diffusion Coefficient", "setting": "[1]; 0.8% Tris NTA, replicate Exp3", "result": 0.48, "unit": "µm2/s"}, {"measurement": "Diffusion Coefficient", "setting": "[1]; 0.8% Tris NTA, replicate Exp4", "result": 0.52, "unit": "µm2/s"}, {"measurement": "Diffusion Coefficient", "setting": "[1]; 1% Tris NTA, mean", "result": 0.57, "unit": "µm2/s"}, {"measurement": "Diffusion Coefficient", "setting": "[1]; 1% Tris NTA, replicate Exp1", "result": 0.45, "unit": "µm2/s"}, {"measurement": "Diffusion Coefficient", "setting": "[1]; 1% Tris NTA, replicate Exp2", "result": 0.57, "unit": "µm2/s"}, {"measurement": "Diffusion Coefficient", "setting": "[1]; 1% Tris NTA, replicate Exp3", "result": 0.66, "unit": "µm2/s"}, {"measurement": "Diffusion Coefficient", "setting": "[1]; 1% Tris NTA, replicate Exp4", "result": 0.60, "unit": "µm2/s"}, {"measurement": "Diffusion Coefficient", "setting": "[1]; 1% Tris NTA, replicate Exp5", "result": 0.57, "unit": "µm2/s"}, {"measurement": "Diffusion Coefficient", "setting": "[1]; 1% Tris NTA, replicate Exp6", "result": 0.68, "unit": "µm2/s"}, {"measurement": "Diffusion Coefficient", "setting": "[1]; 1% Tris NTA, replicate Exp7", "result": 0.62, "unit": "µm2/s"}, {"measurement": "Diffusion Coefficient", "setting": "[1]; 1% Tris NTA, replicate Exp8", "result": 0.43, "unit": "µm2/s"}, {"measurement": "Diffusion Coefficient", "setting": "[1]; Tris 0.10 %", "result": 0.58, "unit": "µm2/s"}, {"measurement": "Diffusion Coefficient", "setting": "[1]; Tris 0.40 %", "result": 0.52, "unit": "µm2/s"}, {"measurement": "Diffusion Coefficient", "setting": "[1]; Tris 0.60 %", "result": 0.58, "unit": "µm2/s"}, {"measurement": "Diffusion Coefficient", "setting": "[1]; Tris 0.80 %", "result": 0.52, "unit": "µm2/s"}, {"measurement": "Diffusion Coefficient", "setting": "[1]; Tris 1.00 %", "result": 0.57, "unit": "µm2/s"}, {"measurement": "Diffusion Coefficient", "setting": "[1]; Tris 2.00 %", "result": 0.58, "unit": "µm2/s"}, {"measurement": "Diffusion Coefficient", "setting": "[1]; Tris […]", "result": 0.56, "unit": "µm2/s"}, {"measurement": "Diffusion Coefficient", "setting": "[1]; […] Tris NTA, mean (n: WT 2, R286W 3, SUMO 3)", "result": 0.56, "unit": "µm2/s"}, {"measurement": "Diffusion Coefficient", "setting": "[1]; […] Tris NTA, replicate Exp1", "result": 0.47, "unit": "µm2/s"}, {"measurement": "Diffusion Coefficient", "setting": "[1]; […] Tris NTA, replicate Exp2", "result": 0.67, "unit": "µm2/s"}, {"measurement": "Diffusion Coefficient", "setting": "[1]; […] Tris NTA, replicate Exp3", "result": 0.53, "unit": "µm2/s"}, {"measurement": "FRET efficiency", "setting": "FtsA self-interaction; 0.1% Tris NTA, Exp1", "result": 1.02, "unit": "%"}, {"measurement": "FRET efficiency", "setting": "FtsA self-interaction; 0.1% Tris NTA, Exp2", "result": 1.41, "unit": "%"}, {"measurement": "FRET efficiency", "setting": "FtsA self-interaction; 0.1% Tris NTA, mean, n = 2", "result": 1.21, "unit": "%"}, {"measurement": "FRET efficiency", "setting": "FtsA self-interaction; 0.4% Tris NTA, Exp1", "result": 1.31, "unit": "%"}, {"measurement": "FRET efficiency", "setting": "FtsA self-interaction; 0.4% Tris NTA, Exp2", "result": 1.55, "unit": "%"}, {"measurement": "FRET efficiency", "setting": "FtsA self-interaction; 0.4% Tris NTA, Mean, n = 2", "result": 1.43, "unit": "%"}, {"measurement": "FRET efficiency", "setting": "FtsA self-interaction; 0.6% Tris NTA, Exp1", "result": 0.86, "unit": "%"}, {"measurement": "FRET efficiency", "setting": "FtsA self-interaction; 0.6% Tris NTA, Exp2", "result": 0.95, "unit": "%"}, {"measurement": "FRET efficiency", "setting": "FtsA self-interaction; 0.6% Tris NTA, Mean, n = 3 (His6-SUMO n = 2)", "result": 0.91, "unit": "%"}, {"measurement": "FRET efficiency", "setting": "FtsA self-interaction; 0.8% Tris NTA, Exp1", "result": 0.27, "unit": "%"}, {"measurement": "FRET efficiency", "setting": "FtsA self-interaction; 0.8% Tris NTA, Exp2", "result": 0.30, "unit": "%"}, {"measurement": "FRET efficiency", "setting": "FtsA self-interaction; 0.8% Tris NTA, Mean, n = 3 (His6-SUMO n = 2)", "result": 0.29, "unit": "%"}, {"measurement": "FRET efficiency", "setting": "FtsA self-interaction; 1% Tris NTA, Exp1", "result": 0.57, "unit": "%"}, {"measurement": "FRET efficiency", "setting": "FtsA self-interaction; 1% Tris NTA, Exp2", "result": 0.59, "unit": "%"}, {"measurement": "FRET efficiency", "setting": "FtsA self-interaction; 1% Tris NTA, Exp3", "result": 0.56, "unit": "%"}, {"measurement": "FRET efficiency", "setting": "FtsA self-interaction; 1% Tris NTA, Mean, n = 3 (R286W-His6 n = 4)", "result": 0.57, "unit": "%"}, {"measurement": "FRET efficiency", "setting": "FtsA self-interaction; 2% Tris NTA, Exp1", "result": 0.56, "unit": "%"}, {"measurement": "FRET efficiency", "setting": "FtsA self-interaction; 2% Tris NTA, Exp2", "result": 0.41, "unit": "%"}, {"measurement": "FRET efficiency", "setting": "FtsA self-interaction; 2% Tris NTA, Mean, n = 2", "result": 0.49, "unit": "%"}, {"measurement": "FRET efficiency", "setting": "FtsA self-interaction; Tris 0.40 %, mean", "result": 1.43, "unit": "%"}, {"measurement": "FRET efficiency", "setting": "FtsA self-interaction; Tris 0.60 %, mean", "result": 0.91, "unit": "%"}, {"measurement": "FRET efficiency", "setting": "FtsA self-interaction; Tris 0.80 %, mean", "result": 0.28, "unit": "%"}, {"measurement": "FRET efficiency", "setting": "FtsA self-interaction; Tris 1.00 %, mean", "result": 0.57, "unit": "%"}, {"measurement": "FRET efficiency", "setting": "FtsA self-interaction; Tris 2.00 %, mean", "result": 0.49, "unit": "%"}, {"measurement": "FRET efficiency", "setting": "FtsA self-interaction; […] Tris NTA, Exp1", "result": 1.47, "unit": "%"}, {"measurement": "FRET efficiency", "setting": "FtsA self-interaction; […] Tris NTA, Exp2", "result": 1.00, "unit": "%"}, {"measurement": "FRET efficiency", "setting": "FtsA self-interaction; […] Tris NTA, mean, n = 2", "result": 1.23, "unit": "%"}]}
